Measurements from patent publication US20150344570A1 (published 2015).

T1: FcγRIIb (human, UniProt P31994 43-217)
T1 construct: extracellular domain; Soluble extracellular domain with C-terminal His tag, used as analyte in Biacore; also called FcgRIIb; 2b; not shown: His tag attached to the C terminus
T1 sequence (looked up): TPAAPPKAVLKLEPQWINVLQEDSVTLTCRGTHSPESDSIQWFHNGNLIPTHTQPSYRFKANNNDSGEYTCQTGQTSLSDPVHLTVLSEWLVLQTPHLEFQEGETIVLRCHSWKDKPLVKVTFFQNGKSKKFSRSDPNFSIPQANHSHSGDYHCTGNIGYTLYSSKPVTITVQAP

T2: FcγRIIb extracellular domain with C-terminal His tag (human, UniProt P31994 43-217)
T2 construct: extracellular domain; also called 2b; FcgRIIb; not shown: His tag at the C terminus
T2 sequence (looked up): T1 sequence (looked up)

B1: GpH7-A5/GpH7-B3 variant A327_01G/GpL16-k0 (antibody, human IgG1, kappa)
heavy 1: not shown
heavy 2: not shown
light: DIVMTQSPLSLPVTPGEPASISCQASESLVHSNRNTYLHWYLQKPGQSPQLLIYKVSNRFSGVPDRFSGSGSGTDFTLKISRVEAEDVGVYYCSQNTHVPPTFGQGTKVEIERTVAAPSVFIFPPSDEQLKSGTASVVCLLNNFYPREAKVQWKVDNALQSGNSQESVTEQDSKDSTYSLSSTLTLSKADYEKHKVYACEVTHQGLSSPVTKSFNRGEC
notes: Heterodimerized anti-glypican-3 IgG1; alteration in the GpH7-B3 chain only; also called He Ab
B2: GpH7-A5/GpH7-B3 variant P238_19Q/GpL16-k0 (antibody, human IgG1, kappa)
heavy 1: not shown
heavy 2: not shown
light: B1 light
notes: as for B1
B3: GpH7-A5/GpH7-B3 variant N325_07I/GpL16-k0 (antibody, human IgG1, kappa)
heavy 1: not shown
heavy 2: not shown
light: B1 light
notes: as for B1
B4: GpH7-A5/GpH7-B3 variant P331_07I/GpL16-k0 (antibody, human IgG1, kappa)
heavy 1: not shown
heavy 2: not shown
light: B1 light
notes: as for B1
B5: GpH7-A5/GpH7-B3 variant S267_01G/GpL16-k0 (antibody, human IgG1, kappa)
heavy 1: not shown
heavy 2: not shown
light: B1 light
notes: IgG1, anti-glypican-3; also called He Ab
B6: GpH7-A5/GpH7-B3 variant S239_03V/GpL16-k0 (antibody, human IgG1, kappa)
heavy 1: not shown
heavy 2: not shown
light: B1 light
notes: as for B1
B7: GpH7-A5/GpH7-B3 variant N325_09D/GpL16-k0 (antibody, human IgG1, kappa)
heavy 1: not shown
heavy 2: not shown
light: B1 light
notes: as for B1
B8: GpH7-A5/GpH7-B3 variant P331_15Y/GpL16-k0 (antibody, human IgG1, kappa)
heavy 1: not shown
heavy 2: not shown
light: B1 light
notes: as for B1
B9: GpH7-A5/GpH7-B3 variant L328_13S/GpL16-k0 (antibody, human IgG1, kappa)
heavy 1: not shown
heavy 2: not shown
light: B1 light
notes: as for B1
B10: GpH7-A5/GpH7-B3 variant S267_07I/GpL16-k0 (antibody, human IgG1, kappa)
heavy 1: not shown
heavy 2: not shown
light: B1 light
notes: as for B5
B11: GpH7-A5/GpH7-B3 variant N325_04F/GpL16-k0 (antibody, human IgG1, kappa)
heavy 1: not shown
heavy 2: not shown
light: B1 light
notes: as for B1
B12: GpH7-A5/GpH7-B3 variant Y300_19Q/GpL16-k0 (antibody, human IgG1, kappa)
heavy 1: not shown
heavy 2: not shown
light: B1 light
notes: as for B5
B13: GpH7-A5/GpH7-B3 variant L328_07I/GpL16-k0 (antibody, human IgG1, kappa)
heavy 1: not shown
heavy 2: not shown
light: B1 light
notes: as for B1
B14: GpH7-A5/GpH7-B3 variant N325_01G/GpL16-k0 (antibody, human IgG1, kappa)
heavy 1: not shown
heavy 2: not shown
light: B1 light
notes: as for B1
B15: GpH7-A5/GpH7-B3 variant G237_13S/GpL16-k0 (antibody, human IgG1, kappa)
heavy 1: not shown
heavy 2: not shown
light: B1 light
notes: as for B1
B16: GpH7-A5/GpH7-B3 variant L328_06M/GpL16-k0 (antibody, human IgG1, kappa)
heavy 1: not shown
heavy 2: not shown
light: B1 light
notes: as for B1
B17: GpH7-A5/GpH7-B3 variant S298_06M/GpL16-k0 (antibody, human IgG1, kappa)
heavy 1: not shown
heavy 2: not shown
light: B1 light
notes: as for B5
B18: GpH7-A5/GpH7-B3 variant N325_20W/GpL16-k0 (antibody, human IgG1, kappa)
heavy 1: not shown
heavy 2: not shown
light: B1 light
notes: as for B1
B19: GpH7-A5/GpH7-B3 variant P331_10E/GpL16-k0 (antibody, human IgG1, kappa)
heavy 1: not shown
heavy 2: not shown
light: B1 light
notes: as for B1
B20: GpH7-A5/GpH7-B3 variant L328_04F/GpL16-k0 (antibody, human IgG1, kappa)
heavy 1: not shown
heavy 2: not shown
light: B1 light
notes: as for B1
B21: GpH7-A5/GpH7-B3 variant S267_08L/GpL16-k0 (antibody, human IgG1, kappa)
heavy 1: not shown
heavy 2: not shown
light: B1 light
notes: as for B5
B22: GpH7-A5/GpH7-B3 variant N325_08L/GpL16-k0 (antibody, human IgG1, kappa)
heavy 1: not shown
heavy 2: not shown
light: B1 light
notes: as for B1
B23: GpH7-A5/GpH7-B3 variant L328_02A/GpL16-k0 (antibody, human IgG1, kappa)
heavy 1: not shown
heavy 2: not shown
light: B1 light
notes: as for B1
B24: GpH7-A5/GpH7-B3 variant P331_04F/GpL16-k0 (antibody, human IgG1, kappa)
heavy 1: not shown
heavy 2: not shown
light: B1 light
notes: as for B1
B25: GpH7-A5/GpH7-B3 variant S267_06M/GpL16-k0 (antibody, human IgG1, kappa)
heavy 1: not shown
heavy 2: not shown
light: B1 light
notes: as for B5
B26: GpH7-A5/GpH7-B3 variant S298_08L/GpL16-k0 (antibody, human IgG1, kappa)
heavy 1: not shown
heavy 2: not shown
light: B1 light
notes: as for B5
B27: GpH7-A5/GpH7-B3 variant S267_19Q/GpL16-k0 (antibody, human IgG1, kappa)
heavy 1: not shown
heavy 2: not shown
light: B1 light
notes: as for B5
B28: GpH7-A5/GpH7-B3 variant G236_10E/GpL16-k0 (antibody, human IgG1, kappa)
heavy 1: not shown
heavy 2: not shown
light: B1 light
notes: as for B1
B29: GpH7-A5/GpH7-B3 variant S267_14T/GpL16-k0 (antibody, human IgG1, kappa)
heavy 1: not shown
heavy 2: not shown
light: B1 light
notes: as for B5
B30: GpH7-A5/GpH7-B3 variant P331_03V/GpL16-k0 (antibody, human IgG1, kappa)
heavy 1: not shown
heavy 2: not shown
light: B1 light
notes: as for B1
B31: GpH7-A5/GpH7-B3 variant P331_06M/GpL16-k0 (antibody, human IgG1, kappa)
heavy 1: not shown
heavy 2: not shown
light: B1 light
notes: as for B1
B32: GpH7-A5/GpH7-B3 variant P238_20W/GpL16-k0 (antibody, human IgG1, kappa)
heavy 1: not shown
heavy 2: not shown
light: B1 light
notes: as for B1
B33: GpH7-A5/GpH7-B3 variant A327_18N/GpL16-k0 (antibody, human IgG1, kappa)
heavy 1: not shown
heavy 2: not shown
light: B1 light
notes: as for B1
B34: GpH7-A5/GpH7-B3 variant S267_03V/GpL16-k0 (antibody, human IgG1, kappa)
heavy 1: not shown
heavy 2: not shown
light: B1 light
notes: as for B5
B35: GpH7-A5/GpH7-B3 variant N325_03V/GpL16-k0 (antibody, human IgG1, kappa)
heavy 1: not shown
heavy 2: not shown
light: B1 light
notes: as for B1
B36: GpH7-A5/GpH7-B3 variant V266_06M/GpL16-k0 (antibody, human IgG1, kappa)
heavy 1: not shown
heavy 2: not shown
light: B1 light
notes: as for B5
B37: GpH7-A5/GpH7-B3 variant S267_10E/GpL16-k0 (antibody, human IgG1, kappa)
heavy 1: not shown
heavy 2: not shown
light: B1 light
notes: as for B5
B38: GpH7-A5/GpH7-B3 variant N325_13S/GpL16-k0 (antibody, human IgG1, kappa)
heavy 1: not shown
heavy 2: not shown
light: B1 light
notes: as for B1
B39: GpH7-A5/GpH7-B3 variant N325_06M/GpL16-k0 (antibody, human IgG1, kappa)
heavy 1: not shown
heavy 2: not shown
light: B1 light
notes: as for B1
B40: GpH7-A5/GpH7-B3 variant L234_20W/GpL16-k0 (antibody, human IgG1, kappa)
heavy 1: not shown
heavy 2: not shown
light: B1 light
notes: as for B1
B41: GpH7-A5/GpH7-B3 variant L235_04F/GpL16-k0 (antibody, human IgG1, kappa)
heavy 1: not shown
heavy 2: not shown
light: B1 light
notes: as for B1
B42: GpH7-A5/GpH7-B3 variant P238_16H/GpL16-k0 (antibody, human IgG1, kappa)
heavy 1: not shown
heavy 2: not shown
light: B1 light
notes: as for B1

Key:
FcγRIa = molecular target: T3, FcγRIa (human, UniProt P12314 16-292); assay: SPR (Biacore), antibody captured, FcγR as analyte; relative to GpH7-A5/GpH7-B3/GpL16-k0 = 100
T3 construct: extracellular domain; Soluble extracellular domain with C-terminal His tag, used as analyte in Biacore; also called FcgRI; 1a; not shown: His tag attached to the C terminus
Method: (§1) The heterodimerized antibodies He Abs in which one of the H chains was introduced with an alteration were assayed for their binding activities to each activating FcγR and inhibitory FcγR according to the method described in Example 4. […] The activating FcγRs in FIGS. 26, 27, 28, and 29 are FcγRIa, FcγRIIa (R), FcγRIIa (H), and FcγRIIIa, respectively.
(§2) Analysis of interaction between objective antibody and the FcγR was carried out using Biacore T100 (GE Healthcare). HBS-EP+ (GE Healthcare) was used as the running buffer, and the measurement temperature was set to 25° C. Chips produced by immobilizing the antigen peptide by the amine coupling method to a Series S Sencor Chip CM5 (GE Healthcare), or alternatively, chips produced by allowing preliminarily biotinylated antigen peptides to interact with and immobilize onto a Series S Sensor Chip SA (certified) (GE Healthcare) were used. Antibodies of interest were captured onto an antigen peptide-immobilized chip, and allowed to interact to each FcγR diluted with running buffer. To regenerate and repeatedly use the chip, the antibodies captured on the chip were washed off by reacting 10 mM glycine-HCl, pH 1.5.

FcγRIIb = molecular target: T1, FcγRIIb; assay: as above
Method: as §1, §2

[1] = molecular target: T4, FcγRIIIa extracellular domain with C-terminal His tag (human, UniProt P08637 17-208); assay: SPR (Biacore), relative to GpH7-A5/GpH7-B3/GpL16-k0 = 100
T4 construct: extracellular domain; also called 3a; FcgRIIIa; not shown: His tag at the C terminus

[2] = molecular target: T2, FcγRIIb extracellular domain with …; assay: as above

T4 sequence (P08637 17-208): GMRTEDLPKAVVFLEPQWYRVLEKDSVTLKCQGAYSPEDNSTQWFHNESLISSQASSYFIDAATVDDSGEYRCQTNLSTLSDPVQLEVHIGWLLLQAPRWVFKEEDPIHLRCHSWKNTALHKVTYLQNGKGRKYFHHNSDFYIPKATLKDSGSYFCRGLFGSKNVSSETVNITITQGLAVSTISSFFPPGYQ
T3 sequence (P12314 16-292): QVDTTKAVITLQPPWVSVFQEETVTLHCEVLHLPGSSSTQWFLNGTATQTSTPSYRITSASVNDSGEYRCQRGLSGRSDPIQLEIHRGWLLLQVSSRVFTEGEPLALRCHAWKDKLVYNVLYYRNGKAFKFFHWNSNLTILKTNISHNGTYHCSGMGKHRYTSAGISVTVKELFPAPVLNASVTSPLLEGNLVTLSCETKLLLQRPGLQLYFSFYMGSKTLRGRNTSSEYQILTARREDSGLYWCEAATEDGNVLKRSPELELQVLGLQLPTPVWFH

Binder	He/Con_1a (FcγRIa)	He/Con_2b (FcγRIIb)	He/Con_3a [1]	He/Con_2b [2]
B1	99 % of control (=100)	116 % of control (=100)	–	–
B2	97.6 % of control (=100)	110 % of control (=100)	–	–
B3	94.8 % of control (=100)	171 % of control (=100)	–	–
B4	93.4 % of control (=100)	114 % of control (=100)	–	–
B5	–	–	53.8 % (control = 100)	105 % (control = 100)
B6	95.9 % of control (=100)	108 % of control (=100)	–	–
B7	99.9 % of control (=100)	124 % of control (=100)	–	–
B8	96 % of control (=100)	114 % of control (=100)	–	–
B9	99 % of control (=100)	149 % of control (=100)	–	–
B10	–	–	25.2 % (control = 100)	192 % (control = 100)
B11	93.2 % of control (=100)	143 % of control (=100)	–	–
B12	–	–	96.3 % (control = 100)	108 % (control = 100)
B13	99.4 % of control (=100)	160 % of control (=100)	–	–
B14	97.1 % of control (=100)	101 % of control (=100)	–	–
B15	92.2 % of control (=100)	111 % of control (=100)	–	–
B16	98.7 % of control (=100)	142 % of control (=100)	–	–
B17	–	–	92.6 % (control = 100)	102 % (control = 100)
B18	93.8 % of control (=100)	169 % of control (=100)	–	–
B19	95 % of control (=100)	116 % of control (=100)	–	–
B20	97.9 % of control (=100)	219 % of control (=100)	–	–
B21	–	–	19.5 % (control = 100)	109 % (control = 100)

Binder	He/Con_1a (FcγRIa)	He/Con_2b (FcγRIIb)	He/Con_3a [1]	He/Con_2b [2]
B22	97.5 % of control (=100)	197 % of control (=100)	–	–
B23	98.5 % of control (=100)	144 % of control (=100)	–	–
B24	95.5 % of control (=100)	110 % of control (=100)	–	–
B25	–	–	66 % (control = 100)	210 % (control = 100)
B26	–	–	73.5 % (control = 100)	108 % (control = 100)
B27	–	–	65 % (control = 100)	218 % (control = 100)
B28	93.7 % of control (=100)	110 % of control (=100)	–	–
B29	–	–	45.6 % (control = 100)	104 % (control = 100)
B30	92 % of control (=100)	119 % of control (=100)	–	–
B31	93.6 % of control (=100)	102 % of control (=100)	–	–
B32	99.9 % of control (=100)	123 % of control (=100)	–	–
B33	97.7 % of control (=100)	113 % of control (=100)	–	–
B34	–	–	30.8 % (control = 100)	192 % (control = 100)
B35	95.6 % of control (=100)	111 % of control (=100)	–	–
B36	–	–	85.8 % (control = 100)	251 % (control = 100)
B37	–	–	91.9 % (control = 100)	379 % (control = 100)
B38	96.8 % of control (=100)	177 % of control (=100)	–	–
B39	97.6 % of control (=100)	217 % of control (=100)	–	–
B40	98.6 % of control (=100)	114 % of control (=100)	–	–
B41	97.1 % of control (=100)	118 % of control (=100)	–	–
B42	96 % of control (=100)	115 % of control (=100)	–	–
